# Measurements: US20210388087A1 (Chugai, published 2021)
# Changes are numbered by the printed parent chain.
# B1: H183/L072 VL H27dD (antibody, name in Kabat numbering, V domains shown)
# VH: QVQLVESGGGLVQPGRSLRLSCAASGFTFSNAWMHWVRQAPGKGLEWVAQIKDKGNAYAAYYAPSVKGRFTISRDDSKNSIYLQMNSLKTEDTAVYYCHYVHYASASTVLPAFGVDAWGQGTTVTVSS
# VL: DIVMTQSPLSLPVTPGEPASISCQASQELVDMNRNTYLHWYQQKPGQAPRLLIYKVSNRFPGVPDRFSGSGSGTDFTLKISRVEAEDVGVYYCAQGTSVPFTFGQGTKLEIK
# notes: Dual-Ig
# B2: H183/L072 VL K50A (antibody, name in Kabat numbering, V domains shown)
# VH: B1 VH
# VL: B1 VL with D31H, K55A
# notes: Dual-Ig
# B3: H183/L072 VL H27dG (antibody, name in Kabat numbering, V domains shown)
# VH: B1 VH
# VL: B1 VL with D31G
# notes: Dual-Ig
# B4: H183/L072 VL H27dW (antibody, name in Kabat numbering, V domains shown)
# VH: B1 VH
# VL: B1 VL with D31W
# notes: Dual-Ig
# B5: H183/L072 VL H27dL (antibody, name in Kabat numbering, V domains shown)
# VH: B1 VH
# VL: B1 VL with D31L
# notes: Dual-Ig
# B6: H183/L072 VL H27dE (antibody, name in Kabat numbering, V domains shown)
# VH: B1 VH
# VL: B1 VL with D31E
# notes: Dual-Ig
# B7: H183/L072 VL H27dI (antibody, name in Kabat numbering, V domains shown)
# VH: B1 VH
# VL: B1 VL with D31I
# notes: Dual-Ig
# B8: H183/L072 VL H27dY (antibody, name in Kabat numbering, V domains shown)
# VH: B1 VH
# VL: B1 VL with D31Y
# notes: Dual-Ig
# B9: H183/L072 VL K50T (antibody, name in Kabat numbering, V domains shown)
# VH: B1 VH
# VL: B1 VL with D31H, K55T
# notes: Dual-Ig
# B10: H183/L072 VL K50R (antibody, name in Kabat numbering, V domains shown)
# VH: B1 VH
# VL: B1 VL with D31H, K55R
# notes: Dual-Ig
# B11: H183/L072 VL H34P (antibody, name in Kabat numbering, V domains shown)
# VH: B1 VH
# VL: B1 VL with D31H, H39P
# notes: Dual-Ig
# B12: H183/L072 VL K50E (antibody, name in Kabat numbering, V domains shown)
# VH: B1 VH
# VL: B1 VL with D31H, K55E
# notes: Dual-Ig
# B13: H183/L072 VL H27dM (antibody, name in Kabat numbering, V domains shown)
# VH: B1 VH
# VL: B1 VL with D31M
# notes: Dual-Ig
# B14: H183/L072 VL K50G (antibody, name in Kabat numbering, V domains shown)
# VH: B1 VH
# VL: B1 VL with D31H, K55G
# notes: Dual-Ig
# B15: H183/L072 VL L27bH (antibody, name in Kabat numbering, V domains shown)
# VH: B1 VH
# VL: B1 VL with L29H, D31H
# notes: Dual-Ig
# B16: H183/L072 VL L27bI (antibody, name in Kabat numbering, V domains shown)
# VH: B1 VH
# VL: B1 VL with L29I, D31H
# notes: Dual-Ig
# B17: H183/L072 VL K50P (antibody, name in Kabat numbering, V domains shown)
# VH: B1 VH
# VL: B1 VL with D31H, K55P
# notes: Dual-Ig
# B18: H183/L072 VL K50D (antibody, name in Kabat numbering, V domains shown)
# VH: B1 VH
# VL: B1 VL with D31H, K55D
# notes: Dual-Ig
# B19: H183/L072 VL H27dP (antibody, name in Kabat numbering, V domains shown)
# VH: B1 VH
# VL: B1 VL with D31P
# notes: Dual-Ig
# B20: H183/L072 VL L27bF (antibody, name in Kabat numbering, V domains shown)
# VH: B1 VH
# VL: B1 VL with L29F, D31H
# notes: Dual-Ig
# B21: H183/L072 VL K50F (antibody, name in Kabat numbering, V domains shown)
# VH: B1 VH
# VL: B1 VL with D31H, K55F
# notes: Dual-Ig
# B22: H183/L072 VL H27dR (antibody, name in Kabat numbering, V domains shown)
# VH: B1 VH
# VL: B1 VL with D31R
# notes: Dual-Ig
# B23: H183/L072 VL H27dF (antibody, name in Kabat numbering, V domains shown)
# VH: B1 VH
# VL: B1 VL with D31F
# notes: Dual-Ig
# B24: H183/L072 VL K50Q (antibody, name in Kabat numbering, V domains shown)
# VH: B1 VH
# VL: B1 VL with D31H, K55Q
# notes: Dual-Ig
# B25: H183/L072 VL K50H (antibody, name in Kabat numbering, V domains shown)
# VH: B1 VH
# VL: B1 VL with D31H, K55H
# notes: Dual-Ig
# B26: H183/L072 VL H27dT (antibody, name in Kabat numbering, V domains shown)
# VH: B1 VH
# VL: B1 VL with D31T
# notes: Dual-Ig
# B27: H183/L072 VL K50I (antibody, name in Kabat numbering, V domains shown)
# VH: B1 VH
# VL: B1 VL with D31H, K55I
# notes: Dual-Ig
# B28: H183/L072 VL K50L (antibody, name in Kabat numbering, V domains shown)
# VH: B1 VH
# VL: B1 VL with D31H, K55L
# notes: Dual-Ig
# B29: H183/L072 VL H27dS (antibody, name in Kabat numbering, V domains shown)
# VH: B1 VH
# VL: B1 VL with D31S
# notes: Dual-Ig
# B30: H183/L072 VL L27bE (antibody, name in Kabat numbering, V domains shown)
# VH: B1 VH
# VL: B1 VL with L29E, D31H
# notes: Dual-Ig
# B31: H183/L072 VL H34M (antibody, name in Kabat numbering, V domains shown)
# VH: B1 VH
# VL: B1 VL with D31H, H39M
# notes: Dual-Ig
# B32: H183/L072 VL L27bD (antibody, name in Kabat numbering, V domains shown)
# VH: B1 VH
# VL: B1 VL with L29D, D31H
# notes: Dual-Ig
# B33: H183/L072 VL H27dV (antibody, name in Kabat numbering, V domains shown)
# VH: B1 VH
# VL: B1 VL with D31V
# notes: Dual-Ig
# B34: H183/L072 VL K50S (antibody, name in Kabat numbering, V domains shown)
# VH: B1 VH
# VL: B1 VL with D31H, K55S
# notes: Dual-Ig
# B35: H183/L072 VL H34L (antibody, name in Kabat numbering, V domains shown)
# VH: B1 VH
# VL: B1 VL with D31H, H39L
# notes: Dual-Ig
# B36: H183/L072 VL H27dK (antibody, name in Kabat numbering, V domains shown)
# VH: B1 VH
# VL: B1 VL with D31K
# notes: Dual-Ig
# B37: H183/L072 VL L27bA (antibody, name in Kabat numbering, V domains shown)
# VH: B1 VH
# VL: B1 VL with L29A, D31H
# notes: Dual-Ig
# B38: H183/L072 VL L27bG (antibody, name in Kabat numbering, V domains shown)
# VH: B1 VH
# VL: B1 VL with L29G, D31H
# notes: Dual-Ig
# B39: H183/L072 VL K50N (antibody, name in Kabat numbering, V domains shown)
# VH: B1 VH
# VL: B1 VL with D31H, K55N
# notes: Dual-Ig
# B40: H183/L072 VL K50W (antibody, name in Kabat numbering, V domains shown)
# VH: B1 VH
# VL: B1 VL with D31H, K55W
# notes: Dual-Ig
# B41: H183/L072 VL H34V (antibody, name in Kabat numbering, V domains shown)
# VH: B1 VH
# VL: B1 VL with D31H, H39V
# notes: Dual-Ig
# B42: H183/L072 VL K50V (antibody, name in Kabat numbering, V domains shown)
# VH: B1 VH
# VL: B1 VL with D31H, K55V
# notes: Dual-Ig
# B43: H183/L072 VL H27dN (antibody, name in Kabat numbering, V domains shown)
# VH: B1 VH
# VL: B1 VL with D31N
# notes: Dual-Ig
# B44: H183/L072 VL H34I (antibody, name in Kabat numbering, V domains shown)
# VH: B1 VH
# VL: B1 VL with D31H, H39I
# notes: Dual-Ig
# B45: H183/L072 VL H27dQ (antibody, name in Kabat numbering, V domains shown)
# VH: B1 VH
# VL: B1 VL with D31Q
# notes: Dual-Ig
# B46: H183/L072 VL K50M (antibody, name in Kabat numbering, V domains shown)
# VH: B1 VH
# VL: B1 VL with D31H, K55M
# notes: Dual-Ig
# Biological target: T1, Human CD137 ECD (human)
# T1 construct: entry includes C-terminal His-tag and biotin acceptor peptide; also called human CD137 extracellular domain; 4-1BB
# Assay: Biacore SPR, vs parent H183/L072
# T1 sequence (chain, as listed by the source limits assumed): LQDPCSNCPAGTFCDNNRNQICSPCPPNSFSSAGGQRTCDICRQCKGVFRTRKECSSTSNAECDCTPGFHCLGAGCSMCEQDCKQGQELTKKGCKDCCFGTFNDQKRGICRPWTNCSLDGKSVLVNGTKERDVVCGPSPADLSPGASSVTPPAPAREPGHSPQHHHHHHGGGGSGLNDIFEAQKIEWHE
row,Binder,fold change of affinity
1,B1,0.3 fold
2,B2,0.1 fold
3,B3,0.6 fold
4,B4,0.5 fold
5,B5,0.6 fold
6,B6,0.6 fold
7,B7,0.8 fold
8,B8,0.5 fold
9,B9,0.2 fold
10,B10,1.7 fold
11,B11,0 fold
12,B12,0 fold
13,B13,0.6 fold
14,B14,0 fold
15,B15,0.3 fold
16,B16,1.1 fold
17,B17,0 fold
18,B18,0 fold
19,B19,0.8 fold
20,B20,0.3 fold
21,B21,0.1 fold
22,B22,0.6 fold
23,B23,0.4 fold

row,Binder,fold change of affinity
1,B24,0.2 fold
2,B25,0 fold
3,B26,0.6 fold
4,B27,2.5 fold
5,B28,1 fold
6,B29,0.6 fold
7,B30,0.2 fold
8,B31,0 fold
9,B32,0.2 fold
10,B33,0.7 fold
11,B34,0 fold
12,B35,0.1 fold
13,B36,0.6 fold
14,B37,0.4 fold
15,B38,0.1 fold
16,B39,0.4 fold
17,B40,0 fold
18,B41,0 fold
19,B42,0.3 fold
20,B43,0.5 fold
21,B44,0 fold
22,B45,0.6 fold
23,B46,2.9 fold
